These results are taken from article PMC6167328, “Elucidating a role for the cytoplasmic domain in the Mycobacterium tuberculosis mechanosensitive channel of large conductance” (Scientific Reports, 2018).

This data set concerns the molecule itself. The data set is described as follows: crystal structure.

B1: C-terminal domain truncation of the Mycobacterium tuberculosis mechanosensitive channel of large conductance (MtMscLΔC) (domain or fragment)
chain: MLKGFKEFLARGNIVDLAVAVVIGTAFTALVTKFTDSIITPLINRIGVNAQSDVGILRIGIGGGQTIDLNVLLSAAINFFLIAFAVYFLVVLPYNTLRKKG
notes: Residues 97-101 are not resolved in the model; also called Mt ∆C
Usually stoichiometry N stands for a count of units in the complex or per binding partner. For the protein B1, the “stoichiometry N” value came out at 5.
